Measured values reported in paper doi:10.1101/2022.09.11.507491.

What follows are substances tested against HA-CXCR4-RLuc3 (UniProt P61073) (assay: FRET or BRET).
Chain of UniProt P61073 (P61073 whole entry): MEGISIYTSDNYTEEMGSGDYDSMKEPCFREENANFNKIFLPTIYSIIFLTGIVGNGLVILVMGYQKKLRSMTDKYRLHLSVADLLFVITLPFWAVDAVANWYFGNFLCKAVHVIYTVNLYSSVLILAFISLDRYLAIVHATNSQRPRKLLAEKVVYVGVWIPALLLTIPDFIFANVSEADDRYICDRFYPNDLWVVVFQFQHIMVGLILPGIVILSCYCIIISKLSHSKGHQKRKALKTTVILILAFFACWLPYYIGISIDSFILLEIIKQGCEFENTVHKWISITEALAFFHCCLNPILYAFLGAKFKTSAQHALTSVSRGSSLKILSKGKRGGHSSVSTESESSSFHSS

Kd of BRET acceptor saturation (x axis: acceptor gMFI) | Substance
13.4 | mVenus-mini-Gαs/i(Y320F)
7.1 | mVenus-miniGαs/i WT
16.7 | mVenus-miniGαs/i(Y320E)
